Measured values reported in patent US9486502B2, “Methods of administering interferon gamma to absorb fluid from the subretinal space” (The United States of America, as represented by the …, priority 2008, dated 2016).

Tests used:
hfRPE cells [1] = test: JC-1 staining of mitochondrial membrane potential; format: cell-based, human
Procedure: Mitochondrial membrane potential change (w) was assessed in live hfRPE cells using the lipophilic cationic probe 5,5′,6,6′-tetrachloro-1,1′3,3′-tetraethylbenzimidazol-carbocyanine iodide (JC-1) following the manufacturer's instructions and as described in Voloboueva, L. A., et al., Invest Ophthalmol Vis Sci, 2005, 46, 4302-4310, incorporated herein by reference in its entirety. Confluent monolayers of hfRPE were treated with different concentrations of IFNγ (0.5, 5, 50 ng/ml) for 24, 48, or 72 hours and then incubated with JC-1 solution for 30 minutes at 37° C. Fluorescence was evaluated with a Zeiss Axiovert 25 inverted microscope.

hfRPE cells [2] = test: BrdU incorporation assay, hfRPE proliferation; format: cell-based, human
Procedure: BrdU incorporation was performed as described in Li, R. et al., 2007, Invest Ophthalmol Vis Sci, 48, 5722-5732, incorporated by reference in its entirety herein. IFNγ, TNFα, and IL-1β were obtained from Peprotech, Rocky Hill, N.J., and Universal Type I Interferon (cat: 11200-1) or human interferon beta la were from PBL biomedical laboratories (New Brunswick, N.J.). Cumulative effects were measured by adding VEGF165, EGF and bFGF (Peprotech), and PDGF-BB (R & D Systems) with IFNγ. Anti-human IFNγ R1 blocking antibody (R & D Systems, Minneapolis, Minn.), JAK inhibitor I, AG490, or JAK3 inhibitor II (EMD Biosciences, Gibbstown, N.J.) was added to the cells one hour prior to the addition of IFNγ. SFM was used as the negative control and SFM supplemented with 5% serum was used as positive control. After treatment for 48 hours, RPE cells were incubated with BrdU for 24 hours. The proliferation rate was evaluated using a Cell proliferation ELISA BrdU Kit (Roche, Ind.). Quadruplicate wells were used for each condition and the experiments were repeated at least two times using cell cultures from different donors. Cell viability was evaluated using a Live/Dead Viability/Cytotoxicity Kit (Invitrogen).

rat RPE = test: in vivo retinal re-attachment assay (OCT)
Procedure: All animal experiments were conducted in compliance with the ARVO Statement for the use of Animals in Ophthalmic and Vision Research, and the protocol was approved by the Animal Care and Use Committee of the National Institutes of Health. The procedures have been described in detail in Maminishkis, A., et al., Invest Ophthalmol Vis Sci, 2006, 47, 3612-3624, incorporated by reference in its entirety herein. Briefly, retinal detachments were created in long-Evans rats by injecting 0.5 to 3 μl of modified phosphate-buffered saline (MPBS) Ringer's solution into the sub-retinal space (SRS), which separates the photoreceptor outer segments and the apical membrane of the RPE. In the control portion of each experiment (at 0-70 minutes after creation of the retinal detachment), the rate of change of bleb volume was measured. The control period of “constant” volume was defined by JV≦2 μl hr cm over at least 40 minutes. Any control injections that exceeded this threshold rate were rejected from subsequent analysis.
IFNγ was dissolved in MPBS, mixed with Celluvisc® solution (1:1) and applied as eye-drops (0.4 mL). Optical coherence tomography (OCT) imaging (Institute of Applied Physics, Russian Academy of Science, Nizhniy Novgorod, Russia) was used to measure the time course of the detachment volume change.
A previously tested in vivo rodent model of retinal detachment was used to measure the effect of IFNγ on re-absorption following retinal detachment, as described in Example 11 and in Maminishkis, A., et al., Invest Ophthalmol Vis Sci, 2002, 43, 3555-3566, incorporated herein by reference in its entirety. Initial detachment was created by injecting approximately 1 μl of osmotically-balanced, modified phosphate-buffered saline (MPBS) Ringer's solution into the extracellular space, i.e. the sub-retinal space (SRS). After stabilization of the detachment, IFNγ (40 μl of 100 ng/ml) was added to the anterior surface of the eye via eye drops (Celluvisc®). A series of 3D OCT images were recorded at different time points.

[3] = Phase I study of topical interferon gamma-1b in CME secondary to uveitis (OCT macular thickness); format: in vivo, human; settings: based on therapeutic treatment of topical IFNα
From the text: To test whether cystoid macular edema (CME), secondary to uveitis, is caused by the disequilibrium of the Jak/Stat and mTor signal transduction pathways in the retinal pigment epithelium (RPE), interferon gamma-1β topically applied in human patients. Five participants with CME secondary to uveitis receive a topical ocular instillation of interferon gamma-1b in a Phase I, non-randomized, prospective, uncontrolled, dose-escalation, single-center study. The study involves a one-time instillation or series of instillations of interferon gamma-1b on the cornea and measurement of a response with optical coherence tomography (OCT) over a three hour period.
A 25% decrease in macular thickness is observed at a post-instillation as compared to baseline. In the study, the first two participants receive one instillation (each instillation contains […] in 0.05 mL solution) on the cornea at time zero, the next two participants receive two instillations, 10 minutes apart, for a total dosage of 20 μg, and the final participant receives three instillations, 10 minutes apart, for a total of 30 μg. OCT will be obtained at −60 minutes, −30 minutes and just before the instillation(s). […]
Participants with CME secondary to uveitis are treated with ocular instillation(s) of interferon gamma-1b. […] The effect on the retinal thickness is measured using OCT measurements as indicated below. […]

B1: IFNγ: pleiotropic cytokine produced by T- and NK-cells; obtained from Peprotech (protein, UniProt P01579 24-161, looked up)
Interferon gamma: QDPYVKEAENLKKYFNAGHSDVADNGTLFLGILKNWKEESDRKIMQSQIVSFYFKLFKNFKDDQSIQKSVETIKEDMNVKFFNSNKKKRDDFEKLTNYSVTDLNVQRKAIHELIQVMAELSPAAKTGKRKRSQMLFRG
hfRPE cells [1]; 24 or 48 hour time points
  mitochondrial membrane potential (JC-1): no significant differences
hfRPE cells [1]; IFNγ 0.5, 5, 50 ng/ml, 72 hours
  mitochondrial membrane potential (JC-1 aggregate fluorescence): dose-dependent decrease
hfRPE cells [2]; 0.5-80 ng/ml
  effect on hfRPE proliferation (BrdU incorporation): strong inhibitory effect
hfRPE cells [2]; IFNγ 5 ng/ml
  effect on hfRPE proliferation induced by bFGF, PDGF-BB, VEGF: significantly inhibited
hfRPE cells [2]; IFNγ alone 5 ng/ml, 5% FBS or 0% FBS
  effect on hfRPE cell proliferation: significantly inhibited
hfRPE cells [2]; other experiments, data not shown
  concentration as low as which hfRPE proliferation was inhibited: 0.02 ng/mL
Rat RPE; IFNγ eye drops on anterior surface, t=0 to 40 minutes, FIG. 23B/E
  JV (fluid transport rate out of the retinal detachment): 12 μl·cm^−2·hr^−1
Rat RPE; IFNγ on anterior surface of the eye
  time in which rate of fluid absorption from subretinal space was significantly increased: less than 30 minutes
Rat RPE; IFNγ on anterior surface, 40 or 54 minutes
  detachment size (volume): decrease in detachment size
[3]
  tolerability of topically applied IFNγ: well-tolerated
